Assays:
[1] = tested on: B2 (FHV B2 1-73) (Flock House Virus); assay: BLI; conditions: BLI (Octet RED384): 10 mM Tris pH 8.0, 100 mM NaCl, 0.1 mg/mL yeast tRNA, 0.1 mM EDTA, 0.05% Tween-20, temperature not stated
J2 anti-dsRNA antibody = assay: BLI; conditions: kinetic, BLI (Octet RED384): 10 mM Tris pH 8.0, 100 mM NaCl, 0.1 mg/mL yeast tRNA, 0.1 mM EDTA, 0.05% Tween-20, temperature not stated
K1 anti-dsRNA antibody = assay: BLI; conditions: BLI (Octet RED384): 10 mM Tris pH 8.0, 100 mM NaCl, 0.1 mg/mL yeast tRNA, 0.1 mM EDTA, 0.05% Tween-20, temperature not stated
B2-Biotin (B2-Avi) = B2-Biotin (B2-Avi) (Flock House Virus, UniProt P68831 1-73); assay: BLI; avidity surface; lower asymptote than long dsRNA; BLI (Octet RED384): 10 mM Tris pH 8.0, 100 mM NaCl, 0.1 mg/mL yeast tRNA, 0.1 mM EDTA, 0.05% Tween-20; temperature not stated; conditions: protein: recombinant; tags: N-terminal 6xHis; C-terminal GS linker-AviTag, biotinylated by BirA in vivo; chain copies: 2; blunt
Sequence of B2-Biotin (B2-Avi) (P68831 1-73): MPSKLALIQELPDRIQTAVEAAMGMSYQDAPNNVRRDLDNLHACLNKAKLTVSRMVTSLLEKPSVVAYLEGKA

[2] = U replaced by N1-methylpseudouridine

Which results are given for 700 bp-5 moU?
Kd ([1]; U replaced by 5-methoxyuridine): 948 nM; Kd (J2 anti-dsRNA antibody; U replaced by 5-methoxyuridine): 131 nM; binding signal (fold weaker than 700 bp-U) (K1 anti-dsRNA antibody; Kd value missing in material, U replaced by 5-methoxyuridine): 4

Which results are given for 700 bp-U?
Kd [1]: 62 nM; Kd (J2 anti-dsRNA antibody): 27 nM; Kd (K1 anti-dsRNA antibody): 325 nM

What does the source list for 700 bp-m1ψ?
Kd [1, 2]: 669 nM; Kd (J2 anti-dsRNA antibody; [2]): 56 nM

What does the source list for 700 bp-ψ?
Kd ([1]; U replaced by pseudouridine): 405 nM; Kd (J2 anti-dsRNA antibody; U replaced by pseudouridine): 32 nM

B1: 25 bp-m1ψ dsRNA (dsRNA)
RNA 1: CACGUACCGUUCUAGCGGGCUCUCG
RNA 2: CGAGAGCCCGCUAGAACGGUACGUG
modifications: U replaced by N1-methylpseudouridine
Does B1 bind (B2-Biotin (B2-Avi))?
Result: binds

B2: 25 bp-U dsRNA (dsRNA)
RNA 1: CACGUACCGUUCUAGCGGGCUCUCG
RNA 2: CGAGAGCCCGCUAGAACGGUACGUG
Does B2 bind (B2-Biotin (B2-Avi))?
Result: binds
